Data on one substance can be found in paper PMC6220982.

Values joined by “and” are separate entries in the source; they are usually repeats but may differ in a detail not shown here. Identical values can stand only once.

Assay [1] concerns the target Asn3-ISP (intracellular subtilisin protease from Planococcus sp. AW02J18, starting at Asn3) (Planococcus sp. AW02J18). The assay is described as follows: SEC; pre-calibrated Superdex 200 10/300 GL; 500 µl Asn3-ISP at 0.8 mg/mL; 50 mM Tris-HCl pH 7.5, 150 mM NaCl; with 2 mM CaCl2 added immediately before the run. In general terms: In gel filtration, larger molecules generally elute earlier.

Assay [2] shares this target. The assay is described as follows: SEC; pre-calibrated Superdex 200 10/300 GL; 500 µl Asn3-ISP at 0.8 mg/mL; 50 mM Tris-HCl pH 7.5, 150 mM NaCl; without calcium or with 1 mM EDTA (overnight).

In the case of “Asn3-ISP (intracellular subtilisin protease from Planococcus sp. AW02J18, starting at Asn3) (enzyme)”, the stoichiometry N (monomers per oligomer) in assay [1] is 3.7 and 2.5; in assay [2], 3.3.
